Assay results as given in patent US20190359677A1 (published 2019).

T1: MCV trLT and sT (large T and small T antigens of Merkel cell polyomavirus, shared exon 1) peptide on … (human)
T1 peptide: KLLEIAPNC

T2: MCV trLT (truncated large T antigen of Merkel cell polyomavirus) peptide on HLA-A*02:01 (human)
T2 peptide: SMFDEVDEA

B1: KLL-85 (TCR, V domains shown)
Valpha: GQQLNQSPQSMFIQEGEDVSMNCTSSSIFNTWLWYKQDPGEGPVLLIALYKAGELTSNGRLTAQFGITRKDSFLNISASIPSDVGIYFCAGQLNQGAQKLVFGQGTRLTINP
Vbeta: DAGVIQSPRHEVTEMGQEVTLRCKPISGHNSLFWYRQTMMRGLELLIYFNNNVPIDDSGMPEDRFSAKMPNASFSTLKIQPSEPRDSAVYFCASSFYSADTQYFGPGTRLTVL
B2: SMF-72 (TCR, V domains shown)
Valpha: AQTVTQSQPEMSVQEAETVTLSCTYDTSESDYYLFWYKQPPSRQMILVIRQEAYKQQNATENRFSVNFQKAAKSFSLKISDSQLGDAAMYFCAYRGTSGTYKYIFGTGTRLKVLA
Vbeta: DTGVSQDPRHKITKRGQNVTFRCDPISEHNRLYWYRQTLGQGPEFLTYFQNEAQLEKSRLLSDRFSAERPKGSFSTLEIQRTEQGDSAMYLCASSKLAGKNIQYFGAGTRLSVL
B3: SMF-48 (TCR, V domains shown)
Valpha: AQTVTQSQPEMSVQEAETVTLSCTYDTSESNYYLFWYKQPPSRQMILVIRQEAYKQQNATENRFSVNFQKAAKSFSLKISDSQLGDTAMYFCAFMKRGNRDDKIIFGKGTRLHILP
Vbeta: GAVVSQHPSWVICKSGTSVKIECRSLDFQATTMFWYRQFPKQSLMLMATSNEGSKATYEQGVEKDKFLINHASLTLSTLTVTSAHPEDSSFYICSASPTSGRRTQYFGPGTRLTVL

Key:
[1] = biological target: T1, MCV trLT and sT (large T and small T …); test: cytokine release
[2] = biological target: T2, MCV trLT (truncated large T antigen of …); test: cytokine release

Binder	binding result [1]	binding result [2]
B1	recognises	–
B2	no recognition	recognises
B3	no recognition	recognises
